Assay results as given in US20220213456.

Assays:
Test in all cases: cleavage_in_vitro
[1] = tested on: T1, OMNI-35 (Bartonella apis); conditions: TXTL; PAM NRR; V1, V2 tested
T1 sequence: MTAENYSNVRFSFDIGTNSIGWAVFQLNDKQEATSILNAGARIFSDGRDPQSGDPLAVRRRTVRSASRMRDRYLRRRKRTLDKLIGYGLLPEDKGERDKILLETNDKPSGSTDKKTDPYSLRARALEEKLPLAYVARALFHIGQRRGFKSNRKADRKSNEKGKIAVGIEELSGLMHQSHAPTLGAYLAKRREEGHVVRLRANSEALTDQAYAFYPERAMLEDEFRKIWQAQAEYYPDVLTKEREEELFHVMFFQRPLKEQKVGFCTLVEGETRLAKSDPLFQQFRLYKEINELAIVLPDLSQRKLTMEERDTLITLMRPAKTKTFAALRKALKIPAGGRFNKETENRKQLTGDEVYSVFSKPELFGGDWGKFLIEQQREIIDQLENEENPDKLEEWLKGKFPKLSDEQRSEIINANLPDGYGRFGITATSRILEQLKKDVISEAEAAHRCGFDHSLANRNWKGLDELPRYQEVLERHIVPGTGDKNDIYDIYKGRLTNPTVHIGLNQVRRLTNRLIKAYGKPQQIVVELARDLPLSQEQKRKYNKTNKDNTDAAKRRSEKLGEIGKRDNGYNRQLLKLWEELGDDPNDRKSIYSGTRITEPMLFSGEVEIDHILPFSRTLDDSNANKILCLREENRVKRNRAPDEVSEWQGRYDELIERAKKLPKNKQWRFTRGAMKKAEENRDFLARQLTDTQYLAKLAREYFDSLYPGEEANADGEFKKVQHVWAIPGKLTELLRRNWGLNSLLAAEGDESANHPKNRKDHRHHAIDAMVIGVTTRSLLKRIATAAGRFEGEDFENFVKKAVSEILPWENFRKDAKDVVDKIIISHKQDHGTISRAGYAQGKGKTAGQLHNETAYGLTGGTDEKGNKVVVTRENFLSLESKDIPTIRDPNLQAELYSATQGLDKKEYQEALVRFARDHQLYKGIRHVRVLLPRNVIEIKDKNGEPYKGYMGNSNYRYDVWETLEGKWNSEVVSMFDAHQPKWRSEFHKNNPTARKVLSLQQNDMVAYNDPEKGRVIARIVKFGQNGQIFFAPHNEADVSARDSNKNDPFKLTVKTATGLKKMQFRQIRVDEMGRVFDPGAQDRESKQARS

[2] = tested on: T2, OMNI-34 (Alistipes sp. An54); conditions: TXTL; PAM NRNNNNAA; sgRNA V1-V3 tested
T2 sequence: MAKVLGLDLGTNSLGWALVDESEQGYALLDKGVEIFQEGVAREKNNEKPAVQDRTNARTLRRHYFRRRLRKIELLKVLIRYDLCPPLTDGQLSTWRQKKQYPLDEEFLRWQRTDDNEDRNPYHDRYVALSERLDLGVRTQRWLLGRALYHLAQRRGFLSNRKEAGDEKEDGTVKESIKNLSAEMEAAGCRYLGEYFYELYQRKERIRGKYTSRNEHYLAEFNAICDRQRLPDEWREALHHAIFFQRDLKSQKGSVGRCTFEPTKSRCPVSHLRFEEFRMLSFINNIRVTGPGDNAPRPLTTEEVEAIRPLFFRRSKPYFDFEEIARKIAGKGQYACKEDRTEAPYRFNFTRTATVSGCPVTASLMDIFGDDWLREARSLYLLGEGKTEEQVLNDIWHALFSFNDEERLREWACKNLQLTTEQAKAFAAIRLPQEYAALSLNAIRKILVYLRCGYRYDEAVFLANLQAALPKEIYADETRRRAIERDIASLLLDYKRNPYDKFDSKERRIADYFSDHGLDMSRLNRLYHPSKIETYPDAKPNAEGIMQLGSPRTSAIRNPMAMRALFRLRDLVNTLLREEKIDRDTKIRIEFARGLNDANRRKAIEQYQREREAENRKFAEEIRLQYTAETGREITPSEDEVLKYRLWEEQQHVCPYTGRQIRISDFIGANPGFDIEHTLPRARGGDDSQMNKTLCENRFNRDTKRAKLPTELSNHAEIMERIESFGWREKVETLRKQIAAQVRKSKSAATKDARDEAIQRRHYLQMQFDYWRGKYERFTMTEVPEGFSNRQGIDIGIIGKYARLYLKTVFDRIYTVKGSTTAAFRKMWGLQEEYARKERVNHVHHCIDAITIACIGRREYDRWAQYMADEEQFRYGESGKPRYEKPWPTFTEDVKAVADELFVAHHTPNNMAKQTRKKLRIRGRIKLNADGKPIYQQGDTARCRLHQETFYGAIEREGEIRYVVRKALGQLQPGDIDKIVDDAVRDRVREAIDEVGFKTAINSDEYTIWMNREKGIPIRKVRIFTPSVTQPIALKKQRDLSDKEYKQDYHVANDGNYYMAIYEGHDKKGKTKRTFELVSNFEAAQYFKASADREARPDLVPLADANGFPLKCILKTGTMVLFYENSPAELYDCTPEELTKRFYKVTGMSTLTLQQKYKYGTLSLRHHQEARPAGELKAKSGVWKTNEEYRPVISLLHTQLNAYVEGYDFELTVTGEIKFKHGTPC

[3] = tested on: T3, OMNI-52 (Butyrivibrio sp. NC3005); conditions: TXTL; PAM NRRADT
T3 sequence: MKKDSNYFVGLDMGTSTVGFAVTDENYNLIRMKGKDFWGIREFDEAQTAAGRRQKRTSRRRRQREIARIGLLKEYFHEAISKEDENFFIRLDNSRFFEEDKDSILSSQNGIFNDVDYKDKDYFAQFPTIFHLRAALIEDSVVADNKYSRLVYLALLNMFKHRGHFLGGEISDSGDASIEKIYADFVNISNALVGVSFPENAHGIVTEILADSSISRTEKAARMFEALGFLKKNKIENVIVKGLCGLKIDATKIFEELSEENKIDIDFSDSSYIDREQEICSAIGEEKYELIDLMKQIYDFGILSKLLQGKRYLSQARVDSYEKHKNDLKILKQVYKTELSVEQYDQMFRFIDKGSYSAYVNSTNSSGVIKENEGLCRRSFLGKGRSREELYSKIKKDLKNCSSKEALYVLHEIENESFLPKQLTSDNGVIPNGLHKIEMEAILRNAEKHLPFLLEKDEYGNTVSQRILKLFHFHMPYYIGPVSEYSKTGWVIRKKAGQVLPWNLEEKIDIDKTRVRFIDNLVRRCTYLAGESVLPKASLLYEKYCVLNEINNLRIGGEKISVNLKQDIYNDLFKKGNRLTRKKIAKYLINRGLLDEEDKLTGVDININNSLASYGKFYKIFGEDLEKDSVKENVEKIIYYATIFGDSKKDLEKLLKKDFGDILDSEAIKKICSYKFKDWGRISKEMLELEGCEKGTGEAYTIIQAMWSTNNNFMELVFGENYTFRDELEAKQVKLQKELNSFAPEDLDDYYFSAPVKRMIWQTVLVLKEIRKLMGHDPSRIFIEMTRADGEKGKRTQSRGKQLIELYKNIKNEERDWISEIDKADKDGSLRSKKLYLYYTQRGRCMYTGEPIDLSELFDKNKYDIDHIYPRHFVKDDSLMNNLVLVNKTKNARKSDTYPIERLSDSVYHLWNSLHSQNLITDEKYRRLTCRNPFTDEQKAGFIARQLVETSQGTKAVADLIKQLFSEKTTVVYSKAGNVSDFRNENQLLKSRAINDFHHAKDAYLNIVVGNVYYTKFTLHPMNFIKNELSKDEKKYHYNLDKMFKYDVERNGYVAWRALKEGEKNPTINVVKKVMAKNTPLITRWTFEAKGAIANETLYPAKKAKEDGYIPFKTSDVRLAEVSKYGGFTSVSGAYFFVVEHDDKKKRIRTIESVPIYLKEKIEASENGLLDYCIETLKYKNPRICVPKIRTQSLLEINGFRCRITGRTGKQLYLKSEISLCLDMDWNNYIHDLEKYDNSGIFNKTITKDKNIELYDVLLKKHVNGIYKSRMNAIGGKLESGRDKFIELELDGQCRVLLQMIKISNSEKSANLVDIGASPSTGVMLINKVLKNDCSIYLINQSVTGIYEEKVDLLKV

[4] = tested on: T4, OMNI-51 (Bacteroides coagulans); conditions: TXTL; PAM NRRAAA
T4 sequence: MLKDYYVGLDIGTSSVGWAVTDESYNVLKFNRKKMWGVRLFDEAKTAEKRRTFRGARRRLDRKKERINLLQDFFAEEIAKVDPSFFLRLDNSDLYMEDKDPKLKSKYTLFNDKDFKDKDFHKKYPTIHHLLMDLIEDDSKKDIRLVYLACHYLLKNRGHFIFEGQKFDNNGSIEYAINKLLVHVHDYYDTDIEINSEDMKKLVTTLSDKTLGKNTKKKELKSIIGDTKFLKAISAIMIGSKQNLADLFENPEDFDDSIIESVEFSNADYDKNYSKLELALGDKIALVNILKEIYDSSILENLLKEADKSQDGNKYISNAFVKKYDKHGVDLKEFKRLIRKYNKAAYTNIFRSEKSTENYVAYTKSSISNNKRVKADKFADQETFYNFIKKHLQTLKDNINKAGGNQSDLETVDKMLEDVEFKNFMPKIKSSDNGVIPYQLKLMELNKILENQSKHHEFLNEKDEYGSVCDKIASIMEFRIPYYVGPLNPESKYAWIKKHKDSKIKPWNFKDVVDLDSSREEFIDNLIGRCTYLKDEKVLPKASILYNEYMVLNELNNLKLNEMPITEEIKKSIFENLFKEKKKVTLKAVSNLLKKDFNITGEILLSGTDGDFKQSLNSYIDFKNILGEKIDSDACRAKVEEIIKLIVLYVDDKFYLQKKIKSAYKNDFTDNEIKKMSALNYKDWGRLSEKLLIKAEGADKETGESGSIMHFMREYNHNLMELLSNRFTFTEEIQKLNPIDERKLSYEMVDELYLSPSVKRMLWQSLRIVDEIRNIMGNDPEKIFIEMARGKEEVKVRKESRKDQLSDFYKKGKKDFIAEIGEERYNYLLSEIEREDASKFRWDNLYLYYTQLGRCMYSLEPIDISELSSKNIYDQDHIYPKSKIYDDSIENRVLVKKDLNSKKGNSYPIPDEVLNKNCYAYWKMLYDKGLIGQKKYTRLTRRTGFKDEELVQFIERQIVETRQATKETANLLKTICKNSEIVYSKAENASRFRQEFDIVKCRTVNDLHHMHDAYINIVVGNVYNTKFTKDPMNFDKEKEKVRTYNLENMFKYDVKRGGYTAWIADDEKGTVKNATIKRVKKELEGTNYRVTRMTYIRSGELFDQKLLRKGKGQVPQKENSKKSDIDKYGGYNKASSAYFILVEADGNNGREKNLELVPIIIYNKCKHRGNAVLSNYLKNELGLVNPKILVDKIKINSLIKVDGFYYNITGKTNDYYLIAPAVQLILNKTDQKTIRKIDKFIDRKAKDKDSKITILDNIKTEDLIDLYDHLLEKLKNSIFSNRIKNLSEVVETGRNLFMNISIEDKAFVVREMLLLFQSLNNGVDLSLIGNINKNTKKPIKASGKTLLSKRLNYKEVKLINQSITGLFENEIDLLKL

“GGAAGAGCAGAGCCUUGGUCUCGUUGCGGCUUGACCGCGAAAGCGGUCUGGCUGUUAACAAGCUAGAUAUGCACCAAAUAAGACAGCUCCUCCGGGGGCUGUUUUUU / GGAAGAGCAGAGCCTTGGTCTCNNNNNNNN / NNNNNNNNGAGACCAAGGCTCTGCTCTTCC [OMNI-35 T2 sgRNA V1 ; pbPOS T2 protospacer 8N PAM library]” was tested, and the activity (1-depletion score) [1] was 0.97.

“GGAAGAGCAGAGCCUUGGUCUCGUUGUGGUUUGAUGUAGAAAUACAUCUUACCACAAUAAGGCUAUAUGCCGAAGGUUUUCAACCUACCGUCUCCGCGUAUUCCGUGGAGACUUUUUU / GGAAGAGCAGAGCCTTGGTCTCNNNNNNNN / NNNNNNNNGAGACCAAGGCTCTGCTCTTCC [OMNI-34 T2 sgRNA V1 ; pbPOS T2 protospacer 8N PAM library]” showed an activity (1-depletion score) [2] of 0.82.

For “GGAAGAGCAGAGCCUUGGUCUCGUUUGAGAGCUUUGGAAACAAAGCGAGUGCAAAUAAGGUUUUACCGGAAUCGUCUUUAUUAAGAACCGCAUGGUGCGGAUUAUUUAGAAGCCAUUUAGAUGGCUUCUAUUUU / GGAAGAGCAGAGCCTTGGTCTCNNNNNNNN / NNNNNNNNGAGACCAAGGCTCTGCTCTTCC [OMNI-52 T2 sgRNA V1 ; pbPOS T2 protospacer 8N PAM library]”, the activity (1-depletion score) [3] was 1.

Sequence “GGAAGAGCAGAGCCUUGGUCUCGUUUGAGAGUUAUGGAAACAUGACAGAGUUCAAAUAAAAAUUUAUUCAAACCGCCUAUUUAAUUAUAGGCCGCAGAUGUUCUGCACUAUGCUUGCAAGGUUGCAAGCUUUUUU / GGAAGAGCAGAGCCTTGGTCTCNNNNNNNN / NNNNNNNNGAGACCAAGGCTCTGCTCTTCC [OMNI-51 T2 sgRNA V1 ; pbPOS T2 protospacer 8N PAM library]” has an activity (1-depletion score) [4] of 1.
